Reference: publication PMC3988174

Legend:
[1] = molecular target: atToc159 G-domain bait (Arabidopsis thaliana) (UniProt O81283); experiment: two-hybrid; pairwise split-ubiquitin yeast two-hybrid of isolated NubG-preys with Toc159G, Toc132G or Toc132AG bait in NMY51; growth on SD-LWHA (3-AT) and quantitative β-Gal assay, activity relative to a reference bait set to 100%
[2] = molecular target: atToc132 A- plus G-domains bait (Arabidopsis thaliana) (UniProt Q9SLF3); experiment: as above
[3] = molecular target: atToc132 G-domain bait (Arabidopsis thaliana) (UniProt Q9SLF3); experiment: as above
atToc132 G-domain bait (Arabidopsis thaliana), sequence (Q9SLF3 456-794): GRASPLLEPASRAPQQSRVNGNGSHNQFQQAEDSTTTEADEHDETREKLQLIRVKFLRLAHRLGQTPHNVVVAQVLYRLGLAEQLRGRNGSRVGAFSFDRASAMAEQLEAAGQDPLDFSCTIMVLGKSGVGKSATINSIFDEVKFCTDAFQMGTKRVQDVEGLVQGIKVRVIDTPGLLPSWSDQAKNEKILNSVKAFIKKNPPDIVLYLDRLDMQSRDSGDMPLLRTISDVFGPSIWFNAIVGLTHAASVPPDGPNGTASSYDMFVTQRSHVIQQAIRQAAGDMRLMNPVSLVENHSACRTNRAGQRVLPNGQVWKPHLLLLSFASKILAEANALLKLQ

[4] = molecular target: T1, LHCA4(TP)-DHFRHis (Arabidopsis thaliana | not stated); experiment: pull-down; solid phase binding assay: His-tagged TP-DHFR or DHFR immobilised on Ni-NTA resin (up to 800 pmol), incubated with 35S-labelled in vitro translated receptor, 25°C, 30 min, 50 mM Hepes-KOH pH 7.5, 5 mM MgCl2, 40 mM KOAc, 0.1% Triton X-100, 40 mM imidazole, 0.1 mM GTP; phosphorimager
T1 sequence (P27521 whole entry, looked up): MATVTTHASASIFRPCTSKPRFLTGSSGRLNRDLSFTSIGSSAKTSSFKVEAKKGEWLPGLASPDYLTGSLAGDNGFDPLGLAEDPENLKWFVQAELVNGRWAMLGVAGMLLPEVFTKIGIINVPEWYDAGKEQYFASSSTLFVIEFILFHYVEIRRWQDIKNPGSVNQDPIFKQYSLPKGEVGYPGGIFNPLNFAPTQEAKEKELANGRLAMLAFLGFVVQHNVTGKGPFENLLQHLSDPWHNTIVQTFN

[5] = molecular target: T2, FNR1(TP)-DHFRHis (Arabidopsis thaliana | not stated); experiment: as above
T2 sequence (Q9FKW6 whole entry, looked up): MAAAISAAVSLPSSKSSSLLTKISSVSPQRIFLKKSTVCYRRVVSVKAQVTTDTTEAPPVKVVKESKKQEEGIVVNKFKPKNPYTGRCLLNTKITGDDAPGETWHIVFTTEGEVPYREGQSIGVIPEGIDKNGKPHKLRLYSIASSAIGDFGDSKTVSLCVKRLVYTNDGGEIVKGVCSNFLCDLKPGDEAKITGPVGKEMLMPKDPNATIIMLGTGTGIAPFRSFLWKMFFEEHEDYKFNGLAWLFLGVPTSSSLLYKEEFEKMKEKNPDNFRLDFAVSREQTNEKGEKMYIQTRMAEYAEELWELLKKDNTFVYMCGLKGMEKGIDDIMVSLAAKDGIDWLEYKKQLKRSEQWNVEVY

atToc159 G-domain bait (Arabidopsis thaliana), sequence (O81283 728-1092): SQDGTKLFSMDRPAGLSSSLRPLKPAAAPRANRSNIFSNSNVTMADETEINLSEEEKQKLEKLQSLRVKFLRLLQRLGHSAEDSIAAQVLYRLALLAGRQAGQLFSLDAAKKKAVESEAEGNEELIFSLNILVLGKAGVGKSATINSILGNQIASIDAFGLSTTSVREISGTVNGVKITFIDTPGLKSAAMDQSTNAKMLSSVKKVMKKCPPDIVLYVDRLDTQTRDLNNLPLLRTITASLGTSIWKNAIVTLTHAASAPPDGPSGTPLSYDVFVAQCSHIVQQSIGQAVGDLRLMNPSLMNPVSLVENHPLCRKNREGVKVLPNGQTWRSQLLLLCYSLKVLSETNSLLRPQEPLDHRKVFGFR
atToc132 A- plus G-domains bait (Arabidopsis thaliana), sequence (Q9SLF3 1-794): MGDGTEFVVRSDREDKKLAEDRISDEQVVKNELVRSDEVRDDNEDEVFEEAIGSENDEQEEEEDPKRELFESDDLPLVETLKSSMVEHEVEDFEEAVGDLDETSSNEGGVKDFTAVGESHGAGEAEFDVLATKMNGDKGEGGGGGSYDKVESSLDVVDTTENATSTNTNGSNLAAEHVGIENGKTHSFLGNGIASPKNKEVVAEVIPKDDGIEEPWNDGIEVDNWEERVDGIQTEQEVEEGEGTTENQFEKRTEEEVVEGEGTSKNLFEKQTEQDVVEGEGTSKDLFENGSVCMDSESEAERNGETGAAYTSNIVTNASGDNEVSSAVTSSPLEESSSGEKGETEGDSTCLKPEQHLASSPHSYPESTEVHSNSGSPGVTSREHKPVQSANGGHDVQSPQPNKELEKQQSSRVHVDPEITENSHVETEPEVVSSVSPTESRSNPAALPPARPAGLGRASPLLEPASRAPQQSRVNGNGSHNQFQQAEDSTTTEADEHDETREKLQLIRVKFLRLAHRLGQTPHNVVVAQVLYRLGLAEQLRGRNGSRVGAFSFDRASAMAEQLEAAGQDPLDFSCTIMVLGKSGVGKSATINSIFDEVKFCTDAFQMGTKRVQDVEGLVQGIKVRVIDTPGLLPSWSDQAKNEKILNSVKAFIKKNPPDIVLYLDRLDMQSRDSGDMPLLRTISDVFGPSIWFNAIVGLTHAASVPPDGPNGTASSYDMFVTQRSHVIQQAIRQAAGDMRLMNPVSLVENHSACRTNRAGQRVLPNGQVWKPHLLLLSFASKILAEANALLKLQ
[35S]atToc159AG, sequence (O81283 1-1092): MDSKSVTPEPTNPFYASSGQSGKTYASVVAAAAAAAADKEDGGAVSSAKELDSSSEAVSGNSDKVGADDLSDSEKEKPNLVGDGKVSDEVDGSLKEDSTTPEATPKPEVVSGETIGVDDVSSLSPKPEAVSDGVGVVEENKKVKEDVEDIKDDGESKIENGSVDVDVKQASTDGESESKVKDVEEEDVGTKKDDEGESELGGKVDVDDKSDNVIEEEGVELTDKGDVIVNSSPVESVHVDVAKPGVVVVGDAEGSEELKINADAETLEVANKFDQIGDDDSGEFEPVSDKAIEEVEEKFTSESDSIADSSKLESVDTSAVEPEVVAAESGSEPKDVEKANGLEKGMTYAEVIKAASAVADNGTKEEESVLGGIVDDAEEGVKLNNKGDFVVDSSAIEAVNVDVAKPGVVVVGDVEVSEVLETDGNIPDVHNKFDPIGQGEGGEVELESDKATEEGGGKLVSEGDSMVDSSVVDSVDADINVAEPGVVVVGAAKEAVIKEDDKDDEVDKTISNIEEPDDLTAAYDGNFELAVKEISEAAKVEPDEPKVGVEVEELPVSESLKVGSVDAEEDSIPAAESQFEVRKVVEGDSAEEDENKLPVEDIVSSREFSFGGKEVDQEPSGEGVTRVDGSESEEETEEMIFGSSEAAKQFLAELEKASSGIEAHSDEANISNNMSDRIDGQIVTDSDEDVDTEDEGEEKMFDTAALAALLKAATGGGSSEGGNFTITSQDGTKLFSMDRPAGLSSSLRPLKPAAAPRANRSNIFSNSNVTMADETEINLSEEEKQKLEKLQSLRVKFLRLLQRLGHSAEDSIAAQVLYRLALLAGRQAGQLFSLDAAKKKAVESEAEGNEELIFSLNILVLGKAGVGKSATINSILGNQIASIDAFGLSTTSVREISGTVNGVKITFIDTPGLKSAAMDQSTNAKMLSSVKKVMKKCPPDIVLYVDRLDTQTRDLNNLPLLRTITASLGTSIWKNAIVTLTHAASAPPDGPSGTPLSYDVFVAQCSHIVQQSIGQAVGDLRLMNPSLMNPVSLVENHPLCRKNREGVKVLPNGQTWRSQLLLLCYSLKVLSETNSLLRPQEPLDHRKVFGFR
[35S]atToc132AG, sequence (Q9SLF3 1-794): as the sequence (Q9SLF3 1-794) above
Photosystem I subunit L, sequence (Q9SUI4 whole entry): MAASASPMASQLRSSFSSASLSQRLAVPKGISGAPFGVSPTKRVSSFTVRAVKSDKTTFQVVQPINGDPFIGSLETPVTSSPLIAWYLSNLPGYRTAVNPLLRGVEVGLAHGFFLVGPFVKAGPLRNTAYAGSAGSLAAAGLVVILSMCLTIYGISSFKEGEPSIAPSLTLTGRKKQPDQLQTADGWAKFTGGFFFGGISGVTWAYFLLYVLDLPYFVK
THI1 -involved in thiamine synthesis (vitamin B), sequence (Q38814 whole entry): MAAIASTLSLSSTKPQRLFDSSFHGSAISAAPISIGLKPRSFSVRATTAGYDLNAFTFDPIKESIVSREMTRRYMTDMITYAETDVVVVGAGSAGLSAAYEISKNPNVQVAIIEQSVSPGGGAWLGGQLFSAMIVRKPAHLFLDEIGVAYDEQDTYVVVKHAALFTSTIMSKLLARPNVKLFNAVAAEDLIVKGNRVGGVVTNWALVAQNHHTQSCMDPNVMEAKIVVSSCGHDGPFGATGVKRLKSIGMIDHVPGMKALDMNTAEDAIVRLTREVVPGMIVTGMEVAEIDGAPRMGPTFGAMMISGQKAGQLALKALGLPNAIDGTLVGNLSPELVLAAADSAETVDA
Photosystem II Subunit P-1, sequence (Q42029 whole entry): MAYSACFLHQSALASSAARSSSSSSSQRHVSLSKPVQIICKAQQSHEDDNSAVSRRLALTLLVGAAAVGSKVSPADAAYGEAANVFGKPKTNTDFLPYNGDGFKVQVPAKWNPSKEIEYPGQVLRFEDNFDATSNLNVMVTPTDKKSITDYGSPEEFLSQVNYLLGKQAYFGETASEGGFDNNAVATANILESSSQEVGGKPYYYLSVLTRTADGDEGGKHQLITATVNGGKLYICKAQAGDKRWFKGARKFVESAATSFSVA
ATP carrier protein 1, sequence (P31167 whole entry): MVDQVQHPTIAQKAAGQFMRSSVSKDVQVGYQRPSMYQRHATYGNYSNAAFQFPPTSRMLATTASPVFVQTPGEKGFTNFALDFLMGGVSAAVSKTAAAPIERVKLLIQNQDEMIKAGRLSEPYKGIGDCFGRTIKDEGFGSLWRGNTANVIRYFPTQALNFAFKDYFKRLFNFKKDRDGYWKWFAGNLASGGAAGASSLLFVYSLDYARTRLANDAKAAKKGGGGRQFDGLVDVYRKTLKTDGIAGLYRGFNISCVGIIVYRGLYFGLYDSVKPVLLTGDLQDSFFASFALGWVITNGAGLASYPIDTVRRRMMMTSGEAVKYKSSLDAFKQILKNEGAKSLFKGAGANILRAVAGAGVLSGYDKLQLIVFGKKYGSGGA
Photosystem I light harvesting complex gene 1, sequence (Q01667 whole entry, one chain of several): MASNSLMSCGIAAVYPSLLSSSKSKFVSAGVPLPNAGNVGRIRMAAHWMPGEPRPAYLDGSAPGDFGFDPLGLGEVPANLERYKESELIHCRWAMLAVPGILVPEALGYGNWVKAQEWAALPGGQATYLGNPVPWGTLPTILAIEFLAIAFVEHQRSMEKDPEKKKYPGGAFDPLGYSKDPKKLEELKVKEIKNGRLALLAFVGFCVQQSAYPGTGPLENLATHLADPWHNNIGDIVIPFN
Photosystem I subunit D-1, sequence (Q9S7H1 whole entry): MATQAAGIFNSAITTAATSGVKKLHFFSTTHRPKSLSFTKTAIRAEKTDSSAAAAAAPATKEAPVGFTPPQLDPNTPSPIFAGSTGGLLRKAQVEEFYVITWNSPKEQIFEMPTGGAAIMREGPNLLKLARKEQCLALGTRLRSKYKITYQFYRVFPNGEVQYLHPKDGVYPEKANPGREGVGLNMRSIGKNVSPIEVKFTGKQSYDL

Substance	% decrease in strength of interaction (β-Gal) with Toc159G against Toc132G [1]	% increase in strength of interaction (β-Gal) with Toc132AG against Toc132G [2]	also measured
Photosystem II 5 kD protein (natural protein)	-26.1%	–	–
ThiaminC (from UniProt O82392 1-644) (natural protein)	–	60.6%	relative β-Gal activity with 132G bait, % higher than with 159G bait [3]: 25.3%
ATP carrier protein 1 (from UniProt P31167 1-381) (natural protein)	–	–	% increase in strength of interaction (β-Gal) with 132G against 159G [3]: 50.6%
Photosystem I reaction centre subunit IV (from UniProt Q9S831 1-143) (natural protein)	-27.1%	–	–
ATPase, F0 complex, subunit B/B’ (from UniProt Q42139 1-219) (natural protein)	–	–	% increase in strength of interaction (β-Gal) with 132G against 159G [3]: 16.5%
Rhomboid-Like Protein 11 (from UniProt Q84MB5 1-280) (natural protein)	–	98%	–
Lipid-transfer protein (natural protein)	–	–	% increase in strength of interaction (β-Gal) with 132G against 159G [3]: 38.1%
Photosystem I subunit E-2 (from UniProt Q9S714 1-145) (natural protein)	–	–	% reduction in strength of interaction (β-Gal) with Toc132AG against Toc132G [2]: 50%; % increase in strength of interaction (β-Gal) with Toc159G against Toc132G [1]: 14.4%
Copper Chaperone (from UniProt O82089 1-121) (natural protein)	–	285%	relative β-Gal activity with 132G bait, % lower than with 159G bait [3]: 27%
Photosystem I light harvesting complex gene 1 (from UniProt Q01667 1-241) (natural protein)	–	–	% increase in strength of interaction (β-Gal) with Toc159G against Toc132G [1]: 11.3%
[35S]atToc159AG (from UniProt O81283 1-1092) (domain or fragment)	–	–	percent bound at 800 pmol LHCA4(TP)-DHFR [4]: 38.2%; percent bound at 800 pmol FNR1(TP)-DHFR [5]: 51.9%
Glucose-6-phosphate transmembrane transporter (from UniProt Q9M5A9 1-388) (natural protein)	–	55.2%	–
[35S]atToc132AG (from UniProt Q9SLF3 1-794) (domain or fragment)	–	–	percent bound at 800 pmol LHCA4(TP)-DHFR [4]: 15%; percent bound at 800 pmol FNR1(TP)-DHFR [5]: 8.7%
THI1 -involved in thiamine synthesis (vitamin B) (from UniProt Q38814 1-349) (natural protein)	–	–	% increase in strength of interaction (β-Gal) with 132G against 159G [3]: 52%
Chaperonin 60 Beta (from UniProt P21240 1-600) (natural protein)	–	55.8%	–
Light-harvesting chlorophyll-protein complex II subunit B1 (natural protein)	–	–	relative strength of interaction (β-Gal) with Toc132AG against Toc132G, % change [2]: -25.9%; % increase in strength of interaction (β-Gal) with Toc159G against Toc132G [1]: 26.4%
Photosystem II Subunit P-1 (from UniProt Q42029 1-263) (natural protein)	-6.7%	–	–
Photosystem II Subunit S (from UniProt Q9XF91 1-265) (natural protein)	-11.9%	–	–
PGR5-Like A (from UniProt Q8H112 1-324) (natural protein)	–	–	% increase in strength of interaction (β-Gal) with Toc159G against Toc132G [1]: 13%
Plastidial Dihydrolipoamide Acetyltransferase (from UniProt Q9C8P0 1-465) (natural protein)	–	33.6%	–
Acyl Carrier Protein 2 (from UniProt P25701 1-136) (natural protein)	–	62.2%	–
Photosystem I P Subunit (from UniProt Q8LCA1 1-174) (natural protein)	-28.2%	–	–
Thioredoxin M-Type 4 (from UniProt Q9SEU6 1-193) (natural protein)	–	93.8%	relative β-Gal activity with 132G bait, % higher than with 159G bait [3]: 25%
Light-Harvesting Chlorophyll B-Binding Protein 3 (from UniProt Q9S7M0 1-265) (natural protein)	-5.52%	–	–
Plastocyanin 2 (from UniProt P42699 1-167) (natural protein)	-29.6%	–	–
Membrane-associated progesterone binding protein 3 (from UniProt Q9M2Z4 1-233) (natural protein)	–	115%	relative β-Gal activity with 132G bait, % higher than with 159G bait [3]: 77.5%
Photosystem I subunit L (from UniProt Q9SUI4 1-219) (natural protein)	-26.8%	–	–
Photosystem I subunit D-1 (from UniProt Q9S7H1 1-208) (natural protein)	-12.2%	–	–
